How the values were obtained:
p110γ-p84 complex = p110γ-p84 complex (human | mouse, UniProt P48736 1-1102; Q3U6Q4 1-756); assay: BLI
p110γ-p101 complex = p110γ-p101 complex (human | Sus scrofa (porcine), UniProt P48736 1-1102; O02696 1-877); assay: BLI
Sequence of p110γ-p101 complex (P48736 whole entry, chain 1 of 2): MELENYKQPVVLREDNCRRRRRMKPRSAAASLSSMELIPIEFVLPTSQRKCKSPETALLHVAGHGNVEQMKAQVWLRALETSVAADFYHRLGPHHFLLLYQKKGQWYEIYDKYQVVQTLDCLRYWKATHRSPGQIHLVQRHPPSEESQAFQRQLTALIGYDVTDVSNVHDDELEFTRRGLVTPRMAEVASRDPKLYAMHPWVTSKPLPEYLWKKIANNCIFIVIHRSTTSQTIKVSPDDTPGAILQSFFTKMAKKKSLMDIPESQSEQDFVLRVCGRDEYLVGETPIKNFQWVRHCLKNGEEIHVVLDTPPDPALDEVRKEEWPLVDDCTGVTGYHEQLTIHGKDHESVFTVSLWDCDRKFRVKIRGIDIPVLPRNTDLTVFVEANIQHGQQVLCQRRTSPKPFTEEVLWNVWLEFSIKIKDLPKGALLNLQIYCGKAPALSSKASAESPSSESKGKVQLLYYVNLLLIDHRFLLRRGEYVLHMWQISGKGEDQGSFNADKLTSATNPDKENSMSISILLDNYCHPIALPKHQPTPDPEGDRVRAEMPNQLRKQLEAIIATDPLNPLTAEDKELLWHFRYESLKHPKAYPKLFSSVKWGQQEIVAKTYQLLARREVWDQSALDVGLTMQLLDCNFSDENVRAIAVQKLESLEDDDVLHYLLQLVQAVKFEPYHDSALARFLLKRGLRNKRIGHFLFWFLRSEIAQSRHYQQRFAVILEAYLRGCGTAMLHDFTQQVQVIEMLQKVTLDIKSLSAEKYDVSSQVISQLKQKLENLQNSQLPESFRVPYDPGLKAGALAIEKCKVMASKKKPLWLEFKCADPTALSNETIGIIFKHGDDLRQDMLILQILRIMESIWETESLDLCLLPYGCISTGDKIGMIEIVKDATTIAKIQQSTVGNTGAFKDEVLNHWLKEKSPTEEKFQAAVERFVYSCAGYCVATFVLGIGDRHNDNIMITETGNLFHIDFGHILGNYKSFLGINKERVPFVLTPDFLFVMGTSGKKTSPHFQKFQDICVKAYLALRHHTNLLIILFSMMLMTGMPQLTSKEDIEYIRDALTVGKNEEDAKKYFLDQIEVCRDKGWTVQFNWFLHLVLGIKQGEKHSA
Sequence of p110γ-p101 complex (O02696 whole entry, chain 2 of 2): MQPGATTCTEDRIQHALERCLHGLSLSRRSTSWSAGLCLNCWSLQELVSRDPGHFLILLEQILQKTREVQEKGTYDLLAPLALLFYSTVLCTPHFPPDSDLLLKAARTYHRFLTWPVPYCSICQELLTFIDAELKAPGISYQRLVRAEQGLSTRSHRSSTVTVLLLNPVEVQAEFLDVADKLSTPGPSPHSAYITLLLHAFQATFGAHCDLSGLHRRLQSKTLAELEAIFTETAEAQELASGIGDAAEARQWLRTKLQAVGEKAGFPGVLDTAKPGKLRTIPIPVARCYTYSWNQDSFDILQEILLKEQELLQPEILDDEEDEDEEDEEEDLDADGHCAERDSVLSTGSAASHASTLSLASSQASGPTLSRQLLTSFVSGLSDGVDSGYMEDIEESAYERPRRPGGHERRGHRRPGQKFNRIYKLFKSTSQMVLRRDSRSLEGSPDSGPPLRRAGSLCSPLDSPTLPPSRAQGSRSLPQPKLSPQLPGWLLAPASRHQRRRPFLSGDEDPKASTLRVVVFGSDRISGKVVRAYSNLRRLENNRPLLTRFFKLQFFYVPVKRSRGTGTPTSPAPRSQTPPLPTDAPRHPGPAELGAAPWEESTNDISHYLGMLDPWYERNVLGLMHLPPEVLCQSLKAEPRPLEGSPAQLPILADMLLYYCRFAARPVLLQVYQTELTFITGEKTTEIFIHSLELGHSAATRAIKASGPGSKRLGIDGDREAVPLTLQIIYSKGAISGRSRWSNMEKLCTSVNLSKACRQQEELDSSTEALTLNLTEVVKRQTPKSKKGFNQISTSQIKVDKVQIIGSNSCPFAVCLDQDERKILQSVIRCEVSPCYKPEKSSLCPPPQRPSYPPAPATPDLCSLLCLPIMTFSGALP

Sequence of p110γ-p84 complex (P48736 whole entry, chain 1 of 2): as the sequence (P48736 whole entry, chain 1 of 2) above
Sequence of p110γ-p84 complex (Q3U6Q4 whole entry, chain 2 of 2): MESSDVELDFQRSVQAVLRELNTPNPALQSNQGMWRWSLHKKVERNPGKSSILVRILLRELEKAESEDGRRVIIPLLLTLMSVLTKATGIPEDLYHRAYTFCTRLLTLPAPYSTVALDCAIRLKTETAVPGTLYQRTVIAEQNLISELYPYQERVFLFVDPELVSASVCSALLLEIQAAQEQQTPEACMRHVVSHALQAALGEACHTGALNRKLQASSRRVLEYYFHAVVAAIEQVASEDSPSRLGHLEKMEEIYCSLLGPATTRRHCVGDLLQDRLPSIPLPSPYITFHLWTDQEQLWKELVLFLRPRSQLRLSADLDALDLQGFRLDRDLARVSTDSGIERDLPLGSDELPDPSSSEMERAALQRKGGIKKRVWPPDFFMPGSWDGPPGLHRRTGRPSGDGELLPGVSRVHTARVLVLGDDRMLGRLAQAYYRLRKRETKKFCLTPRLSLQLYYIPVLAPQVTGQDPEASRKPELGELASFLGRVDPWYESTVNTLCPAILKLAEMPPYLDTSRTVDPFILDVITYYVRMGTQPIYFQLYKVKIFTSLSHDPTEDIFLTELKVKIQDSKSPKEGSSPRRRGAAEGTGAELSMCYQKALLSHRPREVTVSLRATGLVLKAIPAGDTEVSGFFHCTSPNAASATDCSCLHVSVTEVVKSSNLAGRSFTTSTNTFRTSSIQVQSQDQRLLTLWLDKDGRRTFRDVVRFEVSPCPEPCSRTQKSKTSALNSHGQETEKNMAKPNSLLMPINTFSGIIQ

B1: Nanobody NB7-PIK3CG (VHH)
VHH: QVQLVESGGGLVQPGGSLRLSCAASGSIFSINAMGWYRQAPGKQRELVAHITSGGSTNYADSVKGRFTISRDNAKNTVYLQMNSLKPEDTAVYYCNEAGDPFLGSTWNGPPAFGSWGQGTQVTVSS
Kd (p110γ-p84 complex): 3 nM | Kd (p110γ-p101 complex): 3.1 nM

Reference: publication PMC10392983 (2023)
